Key:
hepatocytes = experiment: Apoptosis induced by other agents (TNFα plus galactosamine, okadaic acid, TGFβ) in hepatocytes; assay type: cell-based; conditions: okadaic acid and TGFβ, data not shown
isolated rat hepatocytes = experiment: TGFα and CT-1 gene expression in cultured rat hepatocytes treated with AR; assay type: cell-based; conditions: AR treatment, different periods of time
Procedure: Hepatocytes were isolated from male Wistar rats (150 g) and C57/BL6 mice (20 g) by perfusion with collagenase (Gibco-BRL, Paisley, UK) as described elsewhere [(18), (20)]. Cells (5×10^5 cells per well) were plated onto 6-well plates coated with collagen (type I collagen, Collaborative Biomedical, Bedford, Mass., USA). Cultures were maintained in MEM medium supplemented with 10% fetal calf serum (FCS), non-essential amino acids, glutamine 2 mM and antibiotics (all supplied by Gibco-BRL). After 2 h of incubation, the medium was removed and cells were again cultured in the same medium with 5% FCS. […]
Total RNA was extracted using TRI reagent (Sigma). […] PCR products were subjected to electrophoresis in 2% agarose gels, followed by staining with ethidium bromide and quantification using Molecular Analyst software (Bio-Rad, Hercules, Calif., USA). […]
Real time PCR was performed using an iCycler (BioRad) and iQ SYBR Green Supermix (Bio-Rad). In order to monitor the specificity of final PCR products, the latter were analysed by fusion curves and electrophoresis. The amount of each transcript was expressed as n-fold the difference versus expression of the reference gene (β-actin)(2^ΔCt, where ΔCt represents the difference in threshold cycle between target genes and control gene).

male C57/BL6 mice = experiment: Acute liver damage induced by CCl4 in mice, treatment with AR; assay type: in vivo; conditions: AR 9.5 μg/mouse i.p. 0.5 h before and 12 h after CCl4
Procedure: The experiments were carried out in compliance with the guidelines of the University of Navarra relating to the use of laboratory animals. Cirrhosis was induced with CCl4 in male Wistar rats as described elsewhere [(16) Castilla-Cortazar, I., Garcia, M., Muguerza, B., Quiroga, J., Perez, R., Santidrian, S., Prieto, J. 1997. Hepatoprotective effects of insulin-like growth factor I in rats with carbon tetrachloride-induced cirrhosis. Gastroenterology 113:1682-1691). Two-thirds PH or sham operations were performed on male Wistar rats (150 g) and male C57/BL6 mice (20 g) according to the method of Higgins and Andersen [(17) Higgins, G. M., Andersen, R. M. 1931. Experimental pathology of liver: restoration of liver of the white rat following partial surgical removal. Arch. Pathol. 12:186-202. (18) Latasa, M. U., Boukaba, A., García-Trevijano, E. R., Torres, L., Rodríguez, J. L., Caballería, J., Lu, S. C., López-Rodas, G., Franco, L., Mato, J. M., et al. 2001. Hepatocyte growth factor induces MAT2A expression and histone acetylation in rat hepatocytes. Role in liver regeneration. FASEB J. 10.1096/fj.00-0556fje. (19) Chen, L., Zeng, Y., Yang, H., Lee, T. D., French, S. W., Corrales, F. J., García-Trevijano, E. R., Avila, M. A., Mato, J. M., and Lu, S. C. 2004. Impaired liver regeneration in mice lacking methionine adenosyltransferase 1A. FASEB J. 18: 914-916]. Following sedation, in the sham operated animals the liver was exposed and then returned to the abdominal cavity. […] At the indicated timepoints, mice were subjected to blood sampling and the sera were analysed for alanine and aspartate aminotransferase (ALT and AST) as described elsewhere [(16) and (21) Lasarte, J. J., Sarobe, P., Boya, P., Casares, N., Arribillaga, L., López-Díaz of Cerio, A., Gorraiz, M., Borrás-Cuesta, F., Prieto, J. 2003. […]

[1] = 24 h after injection of CCl4 (1 μl/g i.p.)

B1: amphiregulin (protein)
chain: SVRVEQVVKPPQNKTESENTSDKPKRKKKGGKNGKNRRNRKKKNPCNAEFQNFCIHGECKYIEHLEAVTCKCQQEYFGERCGEKSMKTHSMIDSSLSK
notes: polypeptide growth factor belonging to the EGF family, ligand of EGF receptor; human recombinant AR (Sigma) used
With B1 the “cytoprotective activity against apoptosis induced by other agents” value (hepatocytes) was “cytoprotective activity was also seen”, the “levels of mRNA encoding CT-1” value (isolated rat hepatocytes) was “increased” and the “levels of mRNA encoding TGFα” value (isolated rat hepatocytes) was “increased”. The “degree of histological damage (liver, H&E)” value (male C57/BL6 mice; 24 h after CCl4) was “decreased”, the “serum level of ALT” value (male C57/BL6 mice; [1]) was “clearly attenuated” and the “serum level of AST” value (male C57/BL6 mice; [1]) was “clearly attenuated”.
